Assays:
[1] = target: Recombinant his-tagged HA1 from H7N7 strain A/Chicken/Netherlands/01/03 (Abcam Cat. No. ab61286) (Influenza A virus A/Chicken/Netherlands/01/03 (H7N7))
[2] = substrate: F protein of hRSV strain Long (human respiratory syncytial virus, strain Long) (UniProt P12568); test: cell-based or functional assay
[3] = target: H5 Hemagglutinin (HA, A/Vietnam/1203/2004 (H5N1), Protein Sciences Cat. No. 3006) (influenza A virus A/Vietnam/1203/2004 (H5N1)); test: SPR (Biacore), H5 coupled on CM5, 1:1 Langmuir model
[4] = substrate: F protein of hRSV strain Long (human respiratory syncytial virus, strain Long (ATCC VR-26)) (UniProt P12568); test: cell-based or functional assay
[5] = substrate: F protein of hRSV strain B-1 (human respiratory syncytial virus, strain B-1 (ATCC VR-1580)) (UniProt P13843); test: cell-based or functional assay
[6] = target: Rabies virus glycoprotein G, ERA strain (attenuated vaccine strain, ATCC VR332) (Rabies virus, ERA strain (genotype 1 lyssavirus)) (UniProt P03524); test: cell-based or functional assay
[7] = target: Rabies virus glycoprotein G, Challenge Virus Standard (CVS)-11 strain (Rabies virus, strain CVS-11 (genotype 1 Lyssavirus)) (UniProt O92284); test: cell-based or functional assay
[8] = target: recombinant his6-tagged haemagglutinin HA1, Abcam ab53875; test: ELISA on recombinant haemagglutinin, detection with rabbit anti-NANOBODY serum
[9] = target: recombinant his-tagged HA0 trimer from H5N1 strain A/Anhui/1/2005 (Abcam, Cat. No. ab53938) (influenza A virus A/Anhui/1/2005 (H5N1)); test: as above
[10] = substrate: F protein of RSV B-1 (human respiratory syncytial virus, strain B-1) (UniProt P13843); test: cell-based or functional assay
[11] = substrate: F protein of RSV A-2 (human respiratory syncytial virus, strain A-2) (UniProt P03420); test: cell-based or functional assay
[12] = substrate: F protein of RSV Long (RSV LONG M-2) (human respiratory syncytial virus, strain Long) (UniProt P12568); test: cell-based or functional assay

B1: IV26 (yeast-produced NANOBODY (VHH sequence)) (VHH)
VHH: QVQLQESGGGLVRTGDSLRLSCAASGRTFNGYAMAWFRQAPGKGREFVAAVTWSSGTTNYAGSVKDRFTVSRDNANNTMYLQMNSLKPEDTAVYICGAASGYRSTDRLSDPAWTNYWGQGTQVTVSS
**Q.** For B1, which ELISA titer (NANOBODY concentration giving extinction 1) [1] is on record?
**A.** 80.6 ng/mL

B2: LG192C6 (VHH)
VHH: EVQLVESGGGLVQAGGSLRLSCEASGRTERYQAMGWFRQAPGKEREFVAVVTRWSGARTVYADSVKGRFTISRDNAENTVYLQMNSLKPEDTAVYTCAADSTNRNRGAIYYTWAYDYWGQGTQVTVSS
**Q.** With B2 as the binder, how does the hRSV micro neutralization, strain Long on Hep2 cells [2] read?
**A.** > 3 µM

B3: LG192H2 (VHH)
VHH: EVQLVESGGGLVQAGGSLRLSCEASGRTFSNYAMGWFRQAPGKEREFVAVVTRWSGGRTVYADSVKGRFTISRDNAENTVYLQMNSLKPEDTAVYTCAADSTNRNSGAWYYTWAYDHWGQGTQVTVSS
**Q.** For B3, which hRSV micro neutralization, strain Long on Hep2 cells [2] is on record?
**A.** > 3 µM

B4: 203B12 (VHH)
VHH: EVQLVESGGGLVQPGGSLRLSCAASGFTFSSYAMGWVRRAPGEGLEWVSSISSGGALPTYADSVKGRFTISRDNVKNTLYLQMNSLKPEDTAVYSCEKYAGSMWTSERDAWGQGTQVTVSS
**Q.** Which Kd [3] does the source give for B4 here?
**A.** 30 nM

B5: IV5 (yeast-produced NANOBODY (VHH sequence)) (VHH)
VHH: QVQLQQSGGGLVQAGGSLRLSCAASGRTFSTTGMGWFRQAPGKEREFVAAFWWTGGQTFYADSVKGRFTISGDNAGNTVDLQMNSLKPEDTAVYACAAMSKPRNLWRTDSYDYWGQGTQVTVSS
**Q.** Which ELISA titer (NANOBODY concentration giving extinction 1) [1] does the source give for B5 here?
**A.** 30.7 ng/mL

B6: LG202C8 (VHH)
VHH: EVQLVESGGGLVQPGGSLRLSCTGSGFTFSSYWMDWVRQTPGKDLEYVSGISPSGSNTDYADSVKGRFTISRDNAKNTLYLQMNSLKPEDTALYYCRRSLTLTDSPDLRSQGTQVTVSS
**Q.** Which Kd [3] does the source give for B6 here?
**A.** 10 nM

B7: 203H9 (VHH)
VHH: EVQLVESGGGLVQPGGSLRLSCTGSGFTFSSYWMDWVRQTPGKDLEYVSGISPSGGNTDYADSVKGRFTISRDNAKNTLYLQMNSLQPEDTALYYCRRSLTLTDSPDLRSQGTQVTVSS
**Q.** With B7 as the binder, how does the Kd [3] read?
**A.** 15.5 nM

B8: IV21 (yeast-produced NANOBODY (VHH sequence)) (VHH)
VHH: QVQLQQSGGGLVQAGGFLRLSCAASGRSFNTYAMGWFRQAPGKEREFVAGITRSGTATDYIDSVKGRFTISRDNARDTVYLQMNRLNPEDSAVYYCAAHANYDRMINSEYKYWGQGTQVTVSS
**Q.** With B8 as the binder, how does the ELISA titer (NANOBODY concentration giving extinction 1) [1] read?
**A.** 69 ng/mL

B9: IV37 (yeast-produced NANOBODY (VHH sequence)) (VHH)
VHH: QVQLQESGGGLVQAGDSLRLSCAAPGRSFSGGAMSWFRQVPGKEREFVAAIRWSGGGIRYADSVKGRFTISRDNAKNTFYLQMNSLKPEDTAVYYCAIDPRADLVATMTSIRYWGQGTQVTVSS
**Q.** Which ELISA titer (NANOBODY concentration giving extinction 1) [1] does the source give for B9 here?
**A.** 31.4 ng/mL

B10: IV29 (yeast-produced NANOBODY (VHH sequence)) (VHH)
VHH: QVQLQESGGGLVQAGGSLRLSCVASGRTLDNYAMGWFRQAPGAEREFVGAISANGEDTQYTESVQGRFTISKDNAKSTVYLDMNSLKPEDTAVYYCAADRKTLTYYTSRLRSRYEYWGQGTQVTVSS
**Q.** For B10, which ELISA titer (NANOBODY concentration giving extinction 1) [1] is on record?
**A.** 7.2 ng/mL

B11: IV25 (yeast-produced NANOBODY (VHH sequence)) (VHH)
VHH: QVQLQQSGGGLVQSGGSLSLSCAASGITLNNRVVGWFRQAPGKEREFVGRIMWSVGDTFYARSVKGRFTISRDNAKNTMYLQMNALKPEDTAVYYCAAARDPDLYTGQYEYWGQGTQVTVSS
**Q.** For B11, which ELISA titer (NANOBODY concentration giving extinction 1) [1] is on record?
**A.** 27.8 ng/mL

B12: NC41v06 (VHH)
VHH: EVQLLESGGGLVQPGGSLRLSCAASGGSLSNYVLGWFRQAPGKGREFVAAINWRDDITIGPPNVEGRFTISRDNAKNTLYLQMNSLRPEDTAVYYCGAGTPLNPGAYIYDWSYDYWGQGTLVTVSS
**Q.** B12 was tested. Which Neutralization IC50 (nM), Long (first assay) [4] did it give?
**A.** 111 nM

**Q.** What about the Neutralization IC50 (nM), B-1 (first assay) [5] of the same binder?
**A.** 806 nM

B13: NC41v18 (VHH)
VHH: EVQLLESGGGLVQPGGSLRLSCAASGGSLSNYVLGWFRQAPGKGREFVAAINWRDDITIGPPNVEGRFTISRDNSKNTLYLQMNSLRPEDTAVYYCGAGTPLNPGAYIYDWSYDYWGQGTLVTVSS
**Q.** For B13, which Neutralization IC50 (nM), Long (first assay) [4] is on record?
**A.** 116 nM

**Q.** What about the Neutralization IC50 (nM), Long (second assay) [4] of the same binder?
**A.** 98 nM

**Q.** And the Neutralization IC50 (nM), B-1 (first assay) [5]?
**A.** 728 nM

**Q.** What about the Neutralization IC50 (nM), B-1 (second assay) [5] of the same binder?
**A.** 194 nM

B14: LG192A8 (VHH)
VHH: EVQLVESGGGLVQAGGSLRLSCAASERTVIAYTMGWFRRAPGKERDFVAAMNWNGGNTIYADSAKGRFTISRDNAKNTVYLQMNSLKAEDTAVYYCAARPRFWGSYEYDYWGQGTQVTVSS
**Q.** B14 was tested. Which hRSV micro neutralization, strain Long on Hep2 cells [2] did it give?
**A.** > 3 µM

**Q.** What about the ERA neutralizing antibody titer (RFFIT): EU/mg [6] of the same binder?
**A.** < 0.77 EU/mg

**Q.** And the ERA neutralizing antibody titer (RFFIT): EU/ml [6]?
**A.** < 0.5 EU/ml

**Q.** And the ERA neutralizing antibody titer (RFFIT): EU/µM [6]?
**A.** < 0.02 EU/µM

**Q.** What about the ERA neutralizing antibody titer (RFFIT): nM IC50 [6] of the same binder?
**A.** > 4840 nM

**Q.** What about the CVS-11 neutralizing antibody titer (RFFIT), IU/mg [7] of the same binder?
**A.** < 0.77 IU/mg

**Q.** And the CVS-11 neutralizing antibody titer (RFFIT), IU/ml [7]?
**A.** < 0.5 IU/ml

**Q.** And the CVS-11 neutralizing antibody titer (RFFIT), IU/µM [7]?
**A.** < 0.02 IU/µM

**Q.** What about the CVS-11 neutralizing antibody titer (RFFIT), nM IC50 [7] of the same binder?
**A.** > 4840 nM

B15: IV155 (VHH)
VHH: QVQLQESGGGLVQAGGSLRLSCAASGRSLSRYAMGWFRQAPGKEREFVATKTSGGVTYYGASVKGRFTISRDNAKNMVYLQMNSLNPEDTAIYYCAAGTDAIFKPWMLPDYWGQGTQVTVSG
**Q.** For B15, which ELISA titer (NANOBODY concentration giving extinction 1) [8] is on record?
**A.** > 10000 ng/mL

**Q.** What about the ELISA titer (NANOBODY concentration giving extinction 1) [9] of the same binder?
**A.** > 10000 ng/mL

B16: NC41 (VHH)
VHH: EVQLVESGGGLVQAGGSLSISCAASGGSLSNYVLGWFRQAPGKEREFVAAINWRGDITIGPPNVEGRFTISRDNAKNTGYLQMNSLAPDDTAVYYCGAGTPLNPGAYIYDWSYDYWGRGTQVTVSS
**Q.** How did the Neutralization IC50 (nM), Long (first assay) [4] turn out when B16 was run?
**A.** 202 nM

**Q.** And the Neutralization IC50 (nM), Long (second assay) [4]?
**A.** 122 nM

**Q.** And the Neutralization IC50 (nM), B-1 (first assay) [5]?
**A.** 4710 nM

**Q.** And the Neutralization IC50 (nM), B-1 (second assay) [5]?
**A.** 3290 nM

B17: RSVNC41 (VHH)
VHH: EVQLVESGGGLVQAGGSLSISCAASGGSLSNYVLGWFRQAPGKEREFVAAINWRGDITIGPPNVEGRFTISRDNAKNTGYLQMNSLAPDDTAVYYCGAGTPLNPGAYIYDWSYDYWGRGTQVTVSS
**Q.** For B17, which RSV neutralization IC50 (nM) (n = 2), B1 [10] is on record?
**A.** 4000 nM

**Q.** What about the RSV neutralization IC50 (nM) (n = 2), A-2 [11] of the same binder?
**A.** 26 nM

**Q.** What about the RSV neutralization IC50 (nM) (n = 2), Long [12] of the same binder?
**A.** 58 nM

B18: NC41v03 (VHH)
VHH: EVQLLESGGGLVQPGGSLRISCAASGGSLSNYVLGWFRQAPGKGREFVAAINWRGDITIGPPNVEGRFTISRDNSKNTLYLQMNSLRPEDTAVYYCGAGTPLNPGAYIYDWSYDYWGQGTLVTVSS
**Q.** Which Neutralization IC50 (nM), Long (first assay) [4] does the source give for B18 here?
**A.** 255 nM

**Q.** And the Neutralization IC50 (nM), B-1 (first assay) [5]?
**A.** 1510 nM

B19: LG192C10 (VHH)
VHH: EVQLVESGGGLVQAGGSLRLSCAASEGYFRNYMVGWFRQAPGGERMFVAAISDTAYYADSVKGRFTISRDNAKNTVYLPMNSLKPEDTAVYYCAAAPKSWGTWPLVADTRSYHFWGQGTQVTVSS
**Q.** B19 was tested. Which hRSV micro neutralization, strain Long on Hep2 cells [2] did it give?
**A.** > 3 µM

B20: IV1 (yeast-produced NANOBODY (VHH sequence)) (VHH)
VHH: QVQLQESGGGLVETGGSLRLSCAASGRTFGGYALAWFRQAPGKGREFVAAVTWTSGTTNYAGSVKDRFTVSRDNAGNTMYLQMNSLRPEDTAVYICGAASGYRSPDRLSEPNWVNYWGQGTQVTVSS
**Q.** Which ELISA titer (NANOBODY concentration giving extinction 1) [1] does the source give for B20 here?
**A.** 62.2 ng/mL

Reference: US20200123233A1
